The target of test [1] is T1, SSTR2 (Rattus norvegicus, UniProt P30680). Briefly: cAMP accumulation in forskolin-stimulated GH4C1/SSTR2 cells (SPA radioimmunoassay). It counts as cell-based. On the set-up: expressed in transfected cells; host or cells: GH4C1 rat pituitary tumor cells (GH4C1/SSTR2). As to conditions: cAMP level, dose response of SRIF agonist + 10 µM peptide 1, forskolin stimulated cells. The text has this: A primary effect of SRIF upon mammalian cells is the reduction of cyclic adenosine 3',5'-monophosphate(cAMP) levels, via inhibition of adenylyl cyclase. This is the basis of a common assay for SRIF agonists and antagonists, whereby SRIF agonists reduce artificially stimulated cAMP levels, and SRIF antagonists reverse the effect of SRIF. The rat pituitary tumor cell line GH4C1 predominantly expresses SSTR2, and responds to SRIF and to forskolin, a stimulator of adenylate cyclase (see C.M. Eppler, et al., J. Biol. Chem., 267, 15603-15612, 1992, incorporated herein by reference). […] This increases the response to SRIF and provides a greater dynamic range for the measurement of SRIF antagonist activity.
Stimulation of cells. GH4C1/SSTR2 cells, grown in DMEM with 10% bovine serum, are released from a tissue culture dish by incubation for several minutes at 37° C with PBS containing 0.5 mM EDTA. Cells are washed in induction buffer (PBS containing 100 µM IBMX (an inhibitor of cAMP breakdown) and 2 mM CaCl2) at room temperature, and resuspended at 2 x 10^6/mL in induction buffer. Into each well of a 96-well tray are added 50 µL of a 2 X concentration of stimulants in induction buffer. […] Baseline cAMP levels are determined in samples with no added forskolin or SRIF, and each treatment is performed in triplicate.
cAMP assay. […] The 96-well tray is sealed, shaken at room temperature overnight and measured for bound radioligand in a MicroBeta liquid scintillation counter (Wallac, Gaithersburg. MD). The standard curve is determined for each experiment by performing a nonlinear regression (exponential decay) analysis of cpm measured for the cAMP standards vs. their log concentrations, and test sample values are determined by using Prism software (Graphpad Software Inc., San Diego, CA) and are shown in Table II and Figure 1.
The intrinsic activity of an SRIF antagonist is the percent reversal of the SSTR2 activation by SRIF or MK678, wherein 0% is defined by cAMP levels in samples treated with forskolin plus SRIF or MK678 and 100% is the cAMP level measured after treatment with forskolin alone. […]
In general terms: Changes in cAMP serve as a functional read-out for many G protein-coupled receptors.

Test [2] has as its target T1, SSTR2. Described as above. It is filed as cell-based. On the set-up: expressed in transfected cells; host or cells: GH4C1 rat pituitary tumor cells. As to conditions: GH4-C1; test peptide 100 µM; percent reversal of SSTR2 activation by SRIF or MK678; 0% = forskolin plus agonist, 100% = forskolin alone; read-out: cAMP Assay Intrinsic activity.
In test [3] the target is T1, SSTR2. Nature of the test: Competitive binding of 125I labeled S-14 to membranes of cells expressing transfected SSTR2 (SPA). On the set-up: expressed in transfected cells. As to the method:
Membrane preparation. Tissue culture cell lines expressing transfected cDNA clones of SSTR2 and SSTR5 are used as a source of plasma membranes which specifically bind ^125I labeled S-14 (Amersham, Arlington Heights, IL). Cells are removed from culture dishes by incubation at 4°C for 5 minutes in PBS containing 1 mM EDTA, spun down (2,000 rpm, 5') and resuspended in 15 mL homogenization buffer (1 mM sodium bicarbonate pH 7.2, 1 mM EDTA, 1 mM EGTA and the following protease inhibitors: leupeptin and aprotenin at 5 µg/mL and benzamidine and bacitracin at 100 µg/mL). Cells are given 20 strokes with a Dounce homogenizer on ice and spun at 2000 rpm for 10 minutes. Membranes are isolated from the supernatant by centrifugation at 17,000 rpm for 30 minutes. The membrane pellet is washed once in 15 mL homogenization buffer and once in storage buffer (25 mM Tris pH 7.4 containing protease inhibitors). […] The membrane pellet is resuspended in storage buffer, measured for protein concentration (BioRad, CA) and stored at -80°C.
Binding assay. […] Bound radioligand is determined by counting in a Microbeta Liquid Scintillation counter (Wallac, Gaithersburg, MD). Binding data is plotted and IC50 and Ki values are calculated for test compounds using Prism software (Graphpad Software Inc., San Diego, CA) and are shown in Table V. Binding is expressed as Ki, µM.

In test [4] the target is SRIF receptors expressed in S. cerevisiae (yeast) LY364 cells. Briefly: cell-based or functional assay.

Bridge positions count the residues as written; N and C are the ends. Square brackets hold non-standard residues; d marks the D form. Peptide text beside a SMILES is read from it.

As a reminder, the Ki is the equilibrium dissociation constant of an inhibitor or competing ligand from its target. Read a low Ki as a stronger hold on the target.

T1 sequence (P30680 whole entry): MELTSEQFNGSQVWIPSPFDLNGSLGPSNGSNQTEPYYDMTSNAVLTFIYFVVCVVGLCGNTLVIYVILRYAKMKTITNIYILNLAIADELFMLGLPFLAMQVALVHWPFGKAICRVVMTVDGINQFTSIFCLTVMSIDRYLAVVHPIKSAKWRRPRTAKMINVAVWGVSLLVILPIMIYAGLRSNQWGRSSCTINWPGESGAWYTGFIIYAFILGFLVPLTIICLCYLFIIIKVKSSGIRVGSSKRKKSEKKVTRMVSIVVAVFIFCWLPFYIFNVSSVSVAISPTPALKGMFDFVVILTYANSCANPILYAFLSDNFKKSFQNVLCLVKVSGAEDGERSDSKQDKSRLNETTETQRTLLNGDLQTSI

For `CC(C)[C@@H]1NC(=O)[C@H](CCCCN)NC(=O)[C@@H](Cc2c[nH]c3ccccc23)NC(=O)[C@H](Cc2ccc(O)cc2)NC(=O)[C@H](C)N(C)C(=O)[C@H](Cc2ccccc2)NC1=O` [MK678], at SSTR2 [1], the Maximum worked out at 8.705 and the Minimum is reported as 2.775. Turning to `CC[C@@H](C)[C@H]1NC(=O)[C@@H](Cc2ccccc2)NC(=O)[C@@H](Cc2c[nH]cn2)NC(=O)[C@@H](N)CSSC[C@@H](C(=O)O)NC(=O)[C@@H](Cc2ccccc2)NC(=O)[C@@H](Cc2c[nH]c3ccccc23)NC(=O)[C@@H](CCCNC(=N)N)NC1=O` [Peptide 34, ss C-h-f-i-r-w-f-C] (H-C[dH][dF][dI][dR][dW][dF]C-OH; disulfide 1-8), the Emax on SSTR2 [2] came out at 25.9%. This compound returned a Ki on SSTR2 [3] of 1.95 µM. “Ac-His-Phe-Ile-Arg-Trp-Met-NH2 (all D), Seq Id No. 24 (peptide)” came in with an Inhibition Zone (mm), yeast bioassay for SRIF antagonist activity (LY364 cells growing on 10 nM S-14; 10 µL of 5 mg/mL peptide on a filter disk) in test [4] of 18 mm.

Compound “Ac-His-Phe-Ile-Arg-Trp-Thr-NH2 (all D), Seq Id No. 19 (peptide)” gave an Inhibition Zone (mm), yeast bioassay for SRIF antagonist activity (LY364 cells growing on 10 nM S-14; 10 µL of 5 mg/mL peptide on a filter disk) in test [4] of 14 mm. In turn, “Ac-His-Phe-Ile-Arg-Trp-Trp-NH2 (all D), Seq Id No. 25 (peptide)” came in with an Inhibition Zone (mm), yeast bioassay for SRIF antagonist activity (LY364 cells growing on 10 nM S-14; 10 µL of 5 mg/mL peptide on a filter disk) in test [4] of 16 mm.

The compound “Ac-His-Phe-Ile-Arg-Trp-Tyr-NH2 (all D), Seq Id No. 20 (peptide)” yielded an Inhibition Zone (mm), yeast bioassay for SRIF antagonist activity (LY364 cells growing on 10 nM S-14; 10 µL of 5 mg/mL peptide on a filter disk) in test [4] of 16 mm. On the same count and under the same terms, under “Peptide 1, Ac-D-His-D-Phe-D-Ile-D-Arg-D-Trp-D-Phe-NH2” stands 18 mm.
